Data as given in the Human Domainome abundance scans (Beltran et al. 2025).

B1: Chromodomain-helicase-DNA-binding protein 5, residues 338 to 390; numbered along this chain, Q8TDI0 (parent)
chain: YETDHQDYCEVCQQGGEIILCDTCPRAYHLVCLDPELEKAPEGKWSCPHCEKE

Variants of: B1
Assay: abundance fitness (aPCA) (normalised: wild type 0, dead -1); higher = more abundant; growth selection in yeast, the domain comes from the species named
Conditions: Homo sapiens

Abundance fitness: each site, then its substitutions
R26: I -0.059, T -0.436, G -0.029, P -0.87, H 0.493, L 0.154, F -0.211, Y -0.144, V -0.207, D -0.296, Q 0.205, M 0.144, S 0.002, C 0.012, W -0.18, K 0.094, A 0.009
C24: L -0.682, F -0.567, R -0.804, S -0.753, T -0.586, Y -0.784, P -0.437, V -0.979, M -0.772, N -1.15, K -0.917, Q -0.879, W -0.736, I -0.88
A27: Y -0.159, R -0.086, L -0.204, N 0.048, E -0.55, H -0.097, K -0.242, S -0.133, M -0.29, Q 0.171, V -0.211, I -0.021, P -0.231, W -0.186, T 0.074, F -0.027, D -0.258, C -0.093
L33: N -0.311, I -0.235, T 0.163, A -0.085, S 0.176, V -0.034, H 0.046, F -0.013, P -0.223, E -0.414, C -0.272, G -0.389, M 0.185, R -0.281
H29: L -1.14, Q -0.887, T -0.986, N -0.766, P -0.672, A -0.5, E -0.736, F -1.07, D -0.451, K -0.793, Y -0.719, M -0.547, W -0.822, S -0.882, G -0.744, V -1.1, C 0.053
P25: W -0.081, I 0.064, N -0.084, C -0.278, R -0.107, K 0.109, Y -0.08, L -0.157, Q -0.093, S -0.1, H -0.833, V -0.124, G -0.001, E -0.287, M -0.167, T 0.057
L30: W -0.036, C -0.096, T -0.222, D -0.206, R 0.085, I -0.703, Y 0.193, P -0.414, Q 0.107, N -0.047, V -0.135, E 0.059, S -0.06, K 0.04, G 0.092, F -0.063, A 0.094, M 0.095, H -0.194
C32: M -0.926, L -0.993, Y -0.777, A -1, P -0.885, K -1.03, H -0.765, G -0.969, N -0.579, R -0.94, T -1.02, D -0.806, V -0.618, Q -0.982, E -0.52, I -0.786
V31: K -0.314, S -0.145, M -0.383, H 0.018, R -0.27, C -0.325, P 0.106, L -0.104, G 0.069, I -0.205, E 0.257, D -0.157, T -0.023, A -0.046, F 0.047, Q -0.315, W -0.566, Y -0.368, N -0.193
Y28: P -0.85, V 0.054, H -0.158, M -0.148, R 0.023, F -0.315, I -0.293, W -0.098, E -0.668, N -0.193, L -0.148, G -0.125, D -0.713, S -0.075, A -0.085, Q -0.709, C 0.001
